Source: US9289478B2, “Formulations of tumour-associated peptides binding to human leukocyte antigen (HLA) class I or class II molecules for vaccine” (IMMATICS BIOTECHNOLOGIES GMBH, priority 2008, dated 2016)

Key:
[1] = HPLC-assay for in-use stability after reconstitution with 4.2% sodium hydrogen carbonate solution (Example 3, peptides SEQ ID NO 11-23); assay type: physicochemical
Method: For clinical trials the above described formulation is dissolved in 700 μl sodium hydrogen carbonate (4.2%). To dissolve the lyophilisate, the vial and the diluent shall be shaken vigorously for 1 minute, check whether solution is clear, otherwise continue shaking for another minute until the solution is clear. Administration of 500 μL of the solution has to occur within 1 h after reconstitution. Dissolved lyophilisate may be stored aseptically at room temperature for up to 1 hour following reconstitution.
(§1) Identity, purity and peptide content are determined by analytical RP-HPLC chromatography. Detection wavelength was 220 nm.

[2] = HPLC-assay for stability of peptides in lyophilised formulation on storage for 3 months (Example 4); assay type: physicochemical; settings: for stability of peptides in formulation, 1 M: 1 month; for stability of peptides in formulation, 2 M: 2 months; for stability of peptides in formulation, 3 M: 3 months
Method: as §1

Row | Sequence | in-use stability, Peptide [%] ([1]; +Mannitol/Lutrol, 2h) | in-use stability, Peptide [%] ([1]; +Mannitol/Lutrol, 4h) | in-use stability, Peptide [%] ([1]; +Mannitol/Lutrol, 6h) | in-use stability, Peptide [%] ([1]; +Mannitol/Lutrol, Initial) | in-use stability, Peptide [%] ([1]; no excipients, 2h) | in-use stability, Peptide [%] ([1]; no excipients, 4h) | in-use stability, Peptide [%] ([1]; no excipients, 6h) | in-use stability, Peptide [%] ([1]; no excipients, Initial) | stability of peptides in formulation, 1 M ([2]; +5° C. +/- 3° C.) | stability of peptides in formulation, 2 M ([2]; +5° C. +/- 3° C.) | stability of peptides in formulation, 3 M ([2]; +5° C. +/- 3° C.) | stability of peptides in formulation, INITIAL ([2]; +5° C. +/- 3° C.) | stability of peptides in formulation, 1 M ([2]; +25° C. +/- 2° C.) | stability of peptides in formulation, 2 M ([2]; +25° C. +/- 2° C.) | stability of peptides in formulation, 3 M ([2]; +25° C. +/- 2° C.) | stability of peptides in formulation, INITIAL ([2]; +25° C. +/- 2° C.) | stability of peptides in formulation, 1 M ([2]; -20° C. +/- 5° C.) | stability of peptides in formulation, 2 M ([2]; -20° C. +/- 5° C.) | stability of peptides in formulation, 3 M ([2]; -20° C. +/- 5° C.) | stability of peptides in formulation, INITIAL ([2]; -20° C. +/- 5° C.)
1 | AMTQLLAGV (listed as Homo sapiens) [TNC-001, Tenascin C peptide] | 100.5% | 100.6% | 100.2% | 100.0% | 100.0% | 100.4% | 95.7% | 100.0% | 99.02 % of Initial | 98.10 % of Initial | 98.72 % of Initial | 100.0% | 97.86 % of Initial | 96.80 % of Initial | 97.21 % of Initial | 100.0% | 99.01 % of Initial | 97.61 % of Initial | 98.57 % of Initial | 100.0%
2 | AIIDGVESV (listed as Homo sapiens) [PTP-003, Protein tyrosine phosphatase, receptor-type, Z polypeptide 1 peptide] | 100.3% | 100.5% | 100.1% | 100.0% | 100.4% | 100.9% | 96.1% | 100.0% | 99.07 % of Initial | 97.95 % of Initial | 98.68 % of Initial | 100.0% | 98.29 % of Initial | 97.11 % of Initial | 98.29 % of Initial | 100.0% | 99.11 % of Initial | 97.48 % of Initial | 98.57 % of Initial | 100.0%
3 | TFSYVDPVITSISPKYG (listed as Homo sapiens) [MET-005, Met proto-oncogene peptide] | 100.5% | 100.7% | 100.4% | 100.0% | 100.3% | 100.7% | 96.0% | 100.0% | 99.06 % of Initial | 97.92 % of Initial | 98.59 % of Initial | 100.0% | 97.49 % of Initial | 96.13 % of Initial | 97.21 % of Initial | 100.0% | 99.14 % of Initial | 97.54 % of Initial | 99.00 % of Initial | 100.0%
4 | KVFAGIPTV (listed as Homo sapiens) [PTP-005, Protein tyrosine phosphatase, receptor-type, Z polypeptide 1 peptide] | 100.1% | 100.3% | 99.8% | 100.0% | 99.9% | 100.4% | 95.8% | 100.0% | 98.93 % of Initial | 97.79 % of Initial | 98.67 % of Initial | 100.0% | 98.16 % of Initial | 97.10 % of Initial | 98.30 % of Initial | 100.0% | 98.99 % of Initial | 97.41 % of Initial | 98.34 % of Initial | 100.0%
